Where a chain is given by its changes, count along the chain named. One block for each binder: values may come before it.
Key:
[1] = biological target: T1, His-tagged CD47 recombinant protein, CD47-His (human, UniProt Q08722 19-141, limits assumed); assay: BLI (Octet Red 96), antibody on AHC sensor, CD47-His 100 nM
T1 construct: it is not restated for CD47-His; also called human CD47-His protein; antigen CD47-His; not shown: His tag

[2] = biological target: T2, human CD47, full length, on transfected cells (human, UniProt Q08722 19-323); assay: FACS CHOK1-hCD47; Ab 8 nM
T2 construct: whole, on cells; also called CHOK1-hCD47
Method: (§1) The CHOK1-hCD47 stable cell lines and CHOK1-cCD47 stable cell lines were expanded to 90% confluence in a T-75 cell culture flask, the medium was exhausted, washed twice with HBSS buffer (Hanks balanced salt solution) (purchased from Invitrogen), and then treated and collected with enzyme-free cell dissociation solution (Versene solution: purchased from Life technology). The cells were washed twice with HBSS buffer. After counted, the cells were diluted with HBSS to 2×10⁶ cells per ml, added with 1% goat serum blocking solution, wherein the percentage was the mass percantage, incubated on ice for 30 minutes, and then washed twice with HBSS by centrifugation. […] The plate was washed 3 times with FACS buffer by centrifugation, added with 100 μl fixative solution [4% (v/v) Paraformaldehyde] per well to suspend the cells. 10 minutes later, it was washed twice with FACS buffer by centrifugation. The cells were suspended with 100 microliters of FACS buffer, FACS (FACS Calibur, purchased from BD) was used for detection and the results were analyzed.

[3] = biological target: T3, cynomolgus CD47, on CHOK1-cCD47 stable cell line (cynomolgus); assay: FACS CHOK1-cCD47; Ab 8 nM
T3 construct: whole, on cells; check before use; also called CHOK1/cynoCD47; monkey-derived CD47
Method: as §1

[4] = biological target: T2, human CD47, full length, on transfected …; assay: FACS CHOK1-hCD47; Ab 40 nM
Method: as §1

[5] = biological target: T3, cynomolgus CD47, on CHOK1-cCD47 stable …; assay: FACS CHOK1-cCD47; Ab 40 nM
Method: as §1

[6] = biological target: T2, human CD47, full length, on transfected …; assay: FACS CHOK1-hCD47; Ab 1.6 nM
Method: as §1

[7] = biological target: T2, human CD47, full length, on transfected …; assay: FACS CHOK1-hCD47; Ab 200 nM
Method: as §1

[8] = biological target: T3, cynomolgus CD47, on CHOK1-cCD47 stable …; assay: FACS CHOK1-cCD47; Ab 1.6 nM
Method: as §1

[9] = biological target: T3, cynomolgus CD47, on CHOK1-cCD47 stable …; assay: FACS CHOK1-cCD47; Ab 200 nM
Method: as §1

[10] = biological target: T2, human CD47, full length, on transfected …; assay: FACS CHOK1-hCD47; Ab 0.32 nM
Method: as §1

[11] = biological target: T3, cynomolgus CD47, on CHOK1-cCD47 stable …; assay: FACS CHOK1-cCD47; Ab 0.32 nM
Method: as §1

[12] = biological target: T2, human CD47, full length, on transfected …; assay: FACS CHOK1-hCD47; Ab 0.064 nM
Method: as §1

[13] = biological target: T3, cynomolgus CD47, on CHOK1-cCD47 stable …; assay: FACS CHOK1-cCD47; Ab 0.064 nM
Method: as §1

[14] = biological target: T2, human CD47, full length, on transfected …; assay: FACS CHOK1-hCD47; Ab 0.0128 nM
Method: as §1

[15] = biological target: T3, cynomolgus CD47, on CHOK1-cCD47 stable …; assay: FACS CHOK1-cCD47; Ab 0.0128 nM
Method: as §1

[16] = biological target: T1, His-tagged CD47 recombinant protein, …; assay: ELISA on coated CD47-His; Ab 0.004 nM
Method: (§2) The plate was sealed with plastic film and incubated at 4° C. overnight. The plate was washed twice with plate washing solution [PBS+0.01% (v/v) Tween20] the next day, and blocking solution [PBS+0.01% (v/v) Tween20 +1% (w/w) BSA] was added to block it at room temperature for 2 hours. […] After incubation at 37° C. for 2 hours, the plates were washed three times with plate washing solution [PBS+0.01% (v/v) Tween 20]. HRP (horseradish peroxidase) labeled secondary antibody (purchased from Sigma) was added, incubated at 37° C. for 2 hours, and then washed three times with plate washing solution [PBS+0.01% (v/v) Tween 20]. 1000 of TMB substrate was added to each well. After incubated at room temperature for 30 minutes, the plate was added with 100 μl of stop solution (1.0N HCl) to each well.

[17] = biological target: T1, His-tagged CD47 recombinant protein, …; assay: ELISA on coated CD47-His; Ab 0.021 nM
Method: as §2

[18] = biological target: T1, His-tagged CD47 recombinant protein, …; assay: ELISA on coated CD47-His; Ab 0.107 nM
Method: as §2

[19] = biological target: T1, His-tagged CD47 recombinant protein, …; assay: ELISA on coated CD47-His; Ab 0.533 nM
Method: as §2

[20] = biological target: T1, His-tagged CD47 recombinant protein, …; assay: ELISA on coated CD47-His; Ab 2.667 nM
Method: as §2

[21] = biological target: T1, His-tagged CD47 recombinant protein, …; assay: ELISA on coated CD47-His; Ab 13.333 nM
Method: as §2

[22] = biological target: T1, His-tagged CD47 recombinant protein, …; assay: ELISA on coated CD47-His; Ab 66.667 nM
Method: as §2

[23] = biological target: T2, human CD47, full length, on transfected …; assay: FACS CHOK1-hCD47; Ab 0 nM (background)
Method: as §1

[24] = biological target: T3, cynomolgus CD47, on CHOK1-cCD47 stable …; assay: FACS CHOK1-cCD47; Ab 0 nM (background)
Method: as §1

[25] = biological target: T1, His-tagged CD47 recombinant protein, …; assay: ELISA on coated CD47-His; Ab 0 nM (background)
Method: as §2

[26] = biological target: T4, biotin-labeled CD47 extracellular domain protein (CD47-ECD) (UniProt Q08722 19-139, limits assumed, biotin-labeled (sites not given)); assay: blocking ELISA, biotin-CD47-ECD on coated SIRPα-hFc; Ab 0 nM
T4 construct: extracellular domain; also called CD47 protein

[27] = biological target: T4, biotin-labeled CD47 extracellular …; assay: blocking ELISA, biotin-CD47-ECD on coated SIRPα-hFc; Ab 8 nM
Method: (§3) The plate was sealed with plastic film and incubated at 4° C. overnight. The plate was washed twice with plate washing solution [PBS+0.01% (v/v) Tween20] on the next day, and blocking solution [PBS+0.01% (v/v) Tween20 +1% (w/w) BSA] was added to block it at room temperature for 2 hours. […] After incubation at 37° C. for 2 hours, the plate was washed three times with the plate washing solution [PBS+0.01% (v/v) Tween 20]. HRP (horseradish peroxidase) labeled avidin diluent (purchased from Sigma) was added as 100 microliters per well, and after the plate was incubated for 2 hours at 37° C., it was washed 3 times with washing solution [PBS+0.01% (v/v) Tween 20]. 100 μl of TMB substrate was added to each well. After incubated at room temperature for 30 minutes, the plate was added with 100 μl of stop solution (1.0N HCl) to each well.

[28] = biological target: T4, biotin-labeled CD47 extracellular …; assay: blocking ELISA, biotin-CD47-ECD on coated SIRPα-hFc; Ab 40 nM
Method: as §3

[29] = biological target: T4, biotin-labeled CD47 extracellular …; assay: blocking ELISA, biotin-CD47-ECD on coated SIRPα-hFc; Ab 1.6 nM
Method: as §3

[30] = biological target: T4, biotin-labeled CD47 extracellular …; assay: blocking ELISA, biotin-CD47-ECD on coated SIRPα-hFc; Ab 200 nM
Method: as §3

[31] = biological target: T4, biotin-labeled CD47 extracellular …; assay: blocking ELISA, biotin-CD47-ECD on coated SIRPα-hFc; Ab 0.32 nM
Method: as §3

[32] = biological target: T4, biotin-labeled CD47 extracellular …; assay: blocking ELISA, biotin-CD47-ECD on coated SIRPα-hFc; Ab 0.064 nM
Method: as §3

[33] = biological target: T4, biotin-labeled CD47 extracellular …; assay: blocking ELISA, biotin-CD47-ECD on coated SIRPα-hFc; Ab 0.0128 nM
Method: as §3

Kd [1]: 2.41 nM
koff [1]: 0.00103 s⁻¹
kon [1]: 428000 M⁻¹ s⁻¹
B1: c51E2F11 (antibody, V domains shown)
VH: EVQLQQSGAELVKPGASVKLSCTASGFNIKDHYIHWMNQRTEQGLEWIGRIDPDDGETRYAPKFRGKATLTADTSSNTAYLQFSSLTSEDTAVYHCTRATTITRDWYFDVWGTGTTVTVSS
VL: DIVMTQSQKFMSTSVGDRVSITCKASQNVRTSVAWYQQKPGQSPKALIYLASNRHTGIPDRFTGSGSGTDFTLTIRNVQSEDLADYFCLQHWDYPLTFGAGTKLELK

mean fluorescence intensity [2]: 8450
mean fluorescence intensity [3]: 12100
mean fluorescence intensity [4]: 8900
mean fluorescence intensity [5]: 13900
mean fluorescence intensity [6]: 4850
mean fluorescence intensity [7]: 10500
mean fluorescence intensity [8]: 7190
mean fluorescence intensity [9]: 8870
mean fluorescence intensity [10]: 1710
mean fluorescence intensity [11]: 2540
mean fluorescence intensity [12]: 480
mean fluorescence intensity [13]: 667
mean fluorescence intensity [14]: 113
mean fluorescence intensity [15]: 218
OD450 nm [16]: 0.18
OD450 nm [17]: 0.69
OD450 nm [18]: 2.13
OD450 nm [19]: 2.94
OD450 nm [20]: 3.03
OD450 nm [21]: 2.91
OD450 nm [22]: 2.91
mean fluorescence intensity [23]: 21.9
mean fluorescence intensity [24]: 75.5
OD450 nm [25]: 0.05
OD450 nm of CD47 bound to SIRPα [26]: 2.84
OD450 nm of CD47 bound to SIRPα [27]: 0.06
OD450 nm of CD47 bound to SIRPα [28]: 0.06
OD450 nm of CD47 bound to SIRPα [29]: 0.15
OD450 nm of CD47 bound to SIRPα [30]: 0.06
OD450 nm of CD47 bound to SIRPα [31]: 0.77
OD450 nm of CD47 bound to SIRPα [32]: 2.45
OD450 nm of CD47 bound to SIRPα [33]: 2.76
B2: 4D10B11 (antibody, V domains shown)
VH: QVQLQQSGPELVKPGASVKISCKASGYSFTSYYIHWVKQRPGQGLEWIGWIYPGSGNTKYNEKFKGKATLTADTSSSTADMQLSSLTSEDSAVYYCARRGDWYFDVWGTGTTVTVSS
VL: DIVMSQSPSSLVVSVGEKVTMNCKSSQSLLFSGNQKSSLAWYQQKPGQSPKLLIYWASTRESGVPDRFTGSGSGTDFTLIISTVKAEDLAVYSCQQYYSYPLTFGAGTKLELK
notes: Murine hybridoma antibody purified on protein G

Kd [1]: 1.06 nM
koff [1]: 0.000284 s⁻¹
kon [1]: 268000 M⁻¹ s⁻¹
B3: c4D10B11 (antibody, V domains shown)
VH: B2 VH
VL: B2 VL

Kd [1]: 1.39 nM
koff [1]: 0.000478 s⁻¹
kon [1]: 343000 M⁻¹ s⁻¹
B4: c54G8G6 (antibody, V domains shown)
VH: QVQLQQPGADLVKPGASVKMSCKASGYTFTSYWIIWVKQRPGQGLEWIGDINPGRGSPNYNEKFKRKATLTVDTSSSTAYMQLSSLTSEDSAVYYCVRGGLRRFDHWGQGTLVTVSA
VL: ENVLTQSPAIMSASPGEKVTMTCRASSSVSSSYLHWYQQKSGASPKLWIYSTSTLASGVPARFSGSGSGTSYSLTISSVEAEDAATYYCQQYSGYPYTFGGGTKLEIK

Kd [1]: 3.7 nM
koff [1]: 0.000867 s⁻¹
kon [1]: 234000 M⁻¹ s⁻¹
B5: c25E3B5 (antibody, V domains shown)
VH: QVQLQQPGTALVRPGSSVKLSCKASGYTFTSYWMHWVRQRPIKGLEWIGNIDPSDSETHYNQRFKDKVTLTVDKSSNTAYMQLSSLTSEDSAVYYCARWKYHGIGAMDYWGQGTSVTVSS
VL: DVQITQSPSYLAASPGETVTISCRTNRNISKFLAWYQEKPGKTNKLLIYSGSTLHSGIPSRFSGSGSGTDFTLTISRLEPEDFAMYYCQQHNEYPWSFGGGTKLEIK

Kd [1]: 0.695 nM
koff [1]: 0.000202 s⁻¹
kon [1]: 290000 M⁻¹ s⁻¹
B6: c20H4G5 (antibody, V domains shown)
VH: QVQLQQPGAELVRPGSSVRLSCVTSGYTFTSHWMHWVKQGPIKGLEWIGNIDPSDSETHYNQKFKDKATLTVDKSSSTAYMQLSRLTSDDSAVYYCARWRHLGIGAMDYWGQGTSVIVSS
VL: B5 VL with V19I, S22N, T25A, N26S, R27K, E38A, T43S, K45N, H55Q, S97T

Kd [1]: 0.982 nM
koff [1]: 0.000362 s⁻¹
kon [1]: 369000 M⁻¹ s⁻¹
B7: c132D1E5 (antibody, V domains shown)
VH: QVQLQQPGAELVRPGSSVKLSCKASGYTFTNNWMHWVKQRPLQGLEWIGNIDPSDSETHYNQKFKDKATLTVDKSSTTAYIQLSSLTSEDSAVYYCARWRGGGRGAMDYWGQGTSVTVSS
VL: B5 VL with V19I, S22N, N26S, R27K, H55Q, R77N, S97T, G100R

Reference: patent publication US20220017615A1 (SHANGHAI PHARMAEXPLORER, published 2022)
